Data reported in US20140023585A1, “177 LUTETIUM-LABELED BOMBESIN ANALOGS FOR RADIOTHERAPY” (UNIVERSITATSSPITAL BASEL, priority 2010, published 2014).

Tested on: PC-3 tumors
Assay: Radionuclide therapy study with repeated injections
Type: in vivo, nude mice
Settings: end of the study, compared to controls
Description: A first therapy study was conducted on 25 nude mice (15-20 g) subcutaneously implanted with PC-3 ([…]). For toxicity study the same therapy protocol was applied to 25 CD1 mice. Thirteen days after implantation the mice were randomly divided in 5 groups and treated as described below: • 1. […] 200 pmol of ^natcompound 2 • 5. PBS
According to the protocol agreed upon, three injections per week (days 0, 2, 4) were done and the procedure was repeated (days 14, 16, 18) after one pause week. Based on the biodistribution data of compound 3 with ^111In we observed that injections after 48 h would maintain stable the uptake in the tumor. The pause week is, in our opinion, important for the safety of the animals. The mice were periodically monitored by measuring tumor size and body mass. Animals with loss of >20% of their original weight or with tumor size >20 mm in diameter were sacrificed. Tumor sizes were determined by caliper measurements in two dimensions and tumor volumes were calculated assuming an elliptical shape.

**Q.** Which histopathological changes does the source give for `CC(C)C[C@H](NC(=O)C[C@H](O)[C@H](CC(C)C)NC(=O)[C@H](Cc1c[nH]cn1)NC(=O)CNC(=O)[C@@H](NC(=O)[C@H](C)NC(=O)[C@H](Cc1c[nH]c2ccccc12)NC(=O)[C@H](CCC(N)=O)NC(=O)[C@@H](Cc1ccccc1)NC(=O)CN1CCC(NC(=O)CN2CCN(CC(=O)O)CCN(CC(=O)O)CCN(CC(=O)O)CC2)CC1)C(C)C)C(N)=O` [compound 2, [^177Lu]-DOTA-4-amino-1-carboxymethylpiperidine-D-Phe-Gln-Trp-Ala-Val-Gly-His-Sta-Leu-NH2, metal not drawn] here?
**A.** no compound (radio-peptide) related histopathological changes
